Data set [1] has as its target T1, SUC11 (Chardonnay) (Vitis vinifera, UniProt Q9SQK6).
T1 construct: gene VvSUC11; full length, 500 residues, one site different from Thompson Seedless; expressed in yeast SUSY7/ura3
T1 sequence (Q9SQK6 1-501): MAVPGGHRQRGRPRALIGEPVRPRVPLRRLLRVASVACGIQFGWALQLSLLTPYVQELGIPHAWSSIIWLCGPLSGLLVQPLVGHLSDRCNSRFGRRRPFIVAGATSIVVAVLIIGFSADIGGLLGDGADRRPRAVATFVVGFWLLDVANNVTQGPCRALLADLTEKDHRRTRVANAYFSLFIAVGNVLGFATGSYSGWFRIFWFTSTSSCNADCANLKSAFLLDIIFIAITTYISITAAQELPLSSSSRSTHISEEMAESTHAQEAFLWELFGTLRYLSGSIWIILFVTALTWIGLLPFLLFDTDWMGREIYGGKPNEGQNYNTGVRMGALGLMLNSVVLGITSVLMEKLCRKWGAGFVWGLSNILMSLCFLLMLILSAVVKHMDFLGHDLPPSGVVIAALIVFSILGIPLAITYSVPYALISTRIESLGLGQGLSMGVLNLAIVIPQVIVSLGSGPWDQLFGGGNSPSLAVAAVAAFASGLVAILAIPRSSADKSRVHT
Nature of the data set: sucrose transport in yeast SUSY7/ura3. As to conditions: 0.1, 0.2 and 2 mM sucrose. In kind it is cell-based.

Substrate in data set [2]: OC[C@H]1O[C@@](CO)(O[C@H]2O[C@H](CO)[C@@H](O)[C@H](O)[C@H]2O)[C@@H](O)[C@@H]1O
The experiment in a line: cells, lysate or membranes. In kind it is cell-based, Vitis vinifera. Conditions: pH 5.0, 30 °C, 10 mM glucose, 20 min, expressed alone, labelled compound.

Consider `OC[C@H]1O[C@@](CO)(O[C@H]2O[C@H](CO)[C@@H](O)[C@H](O)[C@H]2O)[C@@H](O)[C@@H]1O` [sucrose], for which the sucrose transport ability result in data set [1] was “did not affect the structure (Figure S5a) or sucrose transport ability”.

B1: VvSUC11 (Vitis vinifera) (protein)
chain: MAVPGGHRQRGRPRALIGEPVRPRVPLRRLLRVASVACGIQFGWALQLSLLTPYVQELGIPHAWSSIIWLCGPLSGLLVQPLVGHLSDRCNSRFGRRRPFIVAGATSIVVAVLIIGFSADIGGLLGDGADRRPRAVATFVVGFWLLDVANNVTQGPCRALLADLTEKDHRRTRVANAYFSLFIAVGNVLGFATGSYSGWFRIFWFTSTSSCNADCANLKSAFLLDIIFIAITTYISITAAQELPLSSSSRSTHISEEMAESTHAQEAFLWELFGTLRYLSGSIWIILFVTALTWIGLLPFLLFDTDWMGREIYGGKPNEGQNYNTGVRMGALGLMLNSVVLGITSVLMEKLCRKWGAGFVWGLSNILMSLCFLLMLILSAVVKHMDFLGHDLPPSGVVIAALIVFSILGIPLAITYSVPYALISTRIESLGLGQGLSMGVLNLAIVIPQVIVSLGSGPWDQLFGGGNSPSLAVAAVAAFASGLVAILAIPRSSADKSRVHT
notes: full length, 500 residues (printed), leaf cDNA in pDR196, expressed in yeast SUSY7/ura3
By Km is commonly meant the substrate concentration at which the rate is half of its maximum. For the molecule B1, in data set [2], the Km was 354 µM.

B2: VvSUC27 (Vitis vinifera) (protein)
chain: MELAKPSSVFAIQDHQSSSPPTPIWKTVVVASIAAGIQFGWALQLSLLTPYVQLLGIPHKWAAFIWLCGPISGMIVQPVVGYHSDRCTSRFGRRRPFIAAGAVLVAIAVFLIGYAADIGRVSGDPLHNTIKTRAVAVFVVGFWILDVANNMLQGPCRALLADLSGTSARRTRTANALYSFFMAVGNVLGYAAGSFSKLHKMFPFARTQACDLYCANLKSCFFLSIALLLILTIIAFATVHETPLNRADIAVVEAGQPFYSQMMNAFRQLRRPMWVLLLVTCLNWIGWFPFLLFDTDWMGREVYGGTVGEGPRGRLYDLGVRAGSLGLMLNSVVLGLMSLGVEFFGRGVGGVKRLWGGVNFLLALCLALTVLVSKLAASWRHSLGGELHPPPIGIKAGALSLFAVMGVPLAITYSIPFALASIFCHSSGAGQGLSLGVLNLAIVVPQMMVSVASGPWDARFGGGNLPAFVVGAFAAALNGVLALTMLPAPPPDVPNTKDERTQPSS
notes: full length, 504 residues (printed), leaf cDNA in pDR196, expressed in yeast SUSY7/ura3
Take B2: the Km in data set [2] was determined as 3064 µM.

B3: VvSUC12 (Vitis vinifera) (protein)
chain: MPETMDAPSIRVPYKNLKQAEVELVAADEPRHGADLNSRVPNGTSDPSSSPSSIPHPPKHGGLRTLILSCMIAAGVQFGWALQLSLLTPYIQTLGIEHAFSSFIWLCGPITGLVVQPCVGIWSDKCSSKYGRRRPFILAGSLMISVAVTIIGFSADIGYLLGDTNMDCRKFKGTRTWAAIIFVLGFWMLDLANNTVQGPARALLADLSGPDQRNSANAIFCSWMAVGNILGFSAGASGHWHRWFPFLLNKACCEACGNLKAAFLIAVVFLTLCTLVTLYFAEEVPLMAYQPHHLSDSAPLLDNPQQIGFDNSKSKLDMSAVDNATGNNPESSYEINKNAKHLTPIVQEQNESFSDGPGAVLVNLLTSLRHLPPAMHSVLLVMALSWLSWFPFFLFDTDWMGREVYHGDPKGDESAVKAYDAGVREGAFGLLLNSVDLGISSFLIEPMCQRMGARLVWAMSNFIVFACMAGTAIISLVSVNEYITEGIQHAIGENRAIKIASLVVFALLGFPLSITYSVPFSITAELTADTGGGQGLAIGVLNLAIVIPQMIVSLGAGPWDALFGGGNIPAFVLAALFALAAGVIATLKLPNLSSSSYKSSGFHFGNFPASMR
notes: full length, 611 residues (printed), leaf cDNA in pDR196, expressed in yeast SUSY7/ura3
On to B3, for which the Km in data set [2] was determined as 943 µM.
